Laboratory results taken from article PMC9569990 (International Journal of Molecular Sciences, 2022).
Changes are numbered by the printed parent chain. Numbers in names are those of the source.

What was measured:
Assay in all cases: SPR; cytokine immobilised on ProteOn GLH sensor chip by amine coupling (9,000-14,000 RU); S100P (wild type or mutant) as analyte, 62 nM-16 µM; 25 °C; 10 mM HEPES, 150 mM NaCl, 1 mM CaCl2, 0.05% TWEEN 20, pH 7.4; heterogeneous ligand model (two ligand populations), one-site model for IL-13; values averaged over analyte concentrations (n = 3-5)
Conditions in all cases: both partners purified
Interleukin-5 = molecular target: T1, Interleukin-5 (human, UniProt P05113 20-134)
T1 construct: Interleukin-5, human, UniProt P05113; also called IL-5; source: bought: PeproTech (source E. coli)
T1 sequence (P05113 20-134): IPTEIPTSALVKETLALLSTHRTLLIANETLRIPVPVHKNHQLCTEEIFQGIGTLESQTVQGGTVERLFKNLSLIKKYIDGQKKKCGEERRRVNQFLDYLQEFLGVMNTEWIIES

Interleukin-21 = molecular target: T2, Interleukin-21 (human, UniProt Q9HBE4 25-162)
T2 construct: Interleukin-21, human, UniProt Q9HBE4; see the manufacturer's catalogue number; also called IL-21; source: bought: PeproTech (source E. coli)
T2 sequence (Q9HBE4 25-162): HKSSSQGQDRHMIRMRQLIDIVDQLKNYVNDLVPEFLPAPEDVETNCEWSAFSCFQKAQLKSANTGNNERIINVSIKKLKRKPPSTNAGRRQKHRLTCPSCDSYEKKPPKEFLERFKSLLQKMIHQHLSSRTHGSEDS

Interleukin-22 = molecular target: T3, Interleukin-22 (human, UniProt Q9GZX6 34-179)
T3 construct: Interleukin-22, human, UniProt Q9GZX6; see the manufacturer's catalogue number; also called IL-22; source: bought: PeproTech (source E. coli)
T3 sequence (looked up): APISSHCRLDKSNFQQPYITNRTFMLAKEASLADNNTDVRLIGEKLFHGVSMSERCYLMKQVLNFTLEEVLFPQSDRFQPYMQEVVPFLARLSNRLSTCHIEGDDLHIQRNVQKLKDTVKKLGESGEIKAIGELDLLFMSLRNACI

Leptin = molecular target: T4, Leptin (human, UniProt P41159 22-167)
T4 construct: Leptin, human, UniProt P41159; see the manufacturer's catalogue number; source: bought: PeproTech (source E. coli)
T4 sequence (P41159 22-167): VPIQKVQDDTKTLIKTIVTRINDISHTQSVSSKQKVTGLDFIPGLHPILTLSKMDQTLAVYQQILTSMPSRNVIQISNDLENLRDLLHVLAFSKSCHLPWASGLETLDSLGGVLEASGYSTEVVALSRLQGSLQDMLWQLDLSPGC

Interleukin-15 = molecular target: T5, Interleukin-15 (human, UniProt P40933 49-162)
T5 construct: Interleukin-15, human, UniProt P40933; see the manufacturer's catalogue number; also called IL-15; source: bought: PeproTech (source E. coli)
T5 sequence (P40933 49-162): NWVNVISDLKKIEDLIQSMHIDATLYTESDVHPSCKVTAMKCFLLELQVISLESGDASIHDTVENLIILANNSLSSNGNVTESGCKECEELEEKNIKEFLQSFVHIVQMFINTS

Prolactin = molecular target: T6, Prolactin (human, UniProt P01236 29-227)
T6 construct: Prolactin, human, UniProt P01236; see the manufacturer's catalogue number; also called PRL; source: bought: PeproTech (source E. coli)
T6 sequence (looked up): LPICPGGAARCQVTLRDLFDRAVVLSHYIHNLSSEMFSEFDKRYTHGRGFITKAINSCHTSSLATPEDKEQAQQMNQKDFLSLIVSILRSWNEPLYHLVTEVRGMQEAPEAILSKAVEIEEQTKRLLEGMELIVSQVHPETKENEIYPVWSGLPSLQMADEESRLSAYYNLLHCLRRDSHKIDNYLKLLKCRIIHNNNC

Growth hormone variant = molecular target: T7, Growth hormone variant (human, UniProt P01242 27-217)
T7 construct: Growth hormone variant, human, UniProt P01242; see the manufacturer's catalogue number; also called GH-V; source: bought: R&D Systems (source E. coli)
T7 sequence (P01242 27-217, change not shown): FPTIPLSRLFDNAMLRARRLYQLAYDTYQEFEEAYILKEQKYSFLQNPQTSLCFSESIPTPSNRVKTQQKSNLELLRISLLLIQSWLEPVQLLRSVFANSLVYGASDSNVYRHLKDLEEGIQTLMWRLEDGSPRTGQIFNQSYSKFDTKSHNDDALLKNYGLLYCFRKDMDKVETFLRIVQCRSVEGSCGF

Interleukin-10 = molecular target: T8, Interleukin-10 (human, UniProt P22301 19-178)
T8 construct: Interleukin-10, human, UniProt P22301; see the manufacturer's catalogue number; also called IL-10; source: bought: PeproTech (source E. coli)
T8 sequence (P22301 19-178): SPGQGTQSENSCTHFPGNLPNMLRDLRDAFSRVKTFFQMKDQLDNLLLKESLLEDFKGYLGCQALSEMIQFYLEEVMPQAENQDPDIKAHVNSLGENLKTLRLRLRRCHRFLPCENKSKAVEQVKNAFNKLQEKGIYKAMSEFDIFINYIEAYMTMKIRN

B1: Human S100P protein (recombinant, Ca^2+-loaded) (natural protein)
chain: MTELETAMGMIIDVFSRYSGSEGSTQTLTKGELKVLMEKELPGFLQSGKDKDAVDKLLKDLDANGDAQVDFSEFIVFVAAITSACHKYFEKAGLK
notes: S100P protein, human, recombinant; probably the whole 95-residue protein (surmise); also called wild-type S100P; WT S100P; source: E. coli, prepared as previously described [28]
- Kd1 (heterogeneous ligand model, population 1) (Interleukin-5): 3.66 nM
- Kd2 (heterogeneous ligand model, population 2) (Interleukin-5): 833 nM
- kd1 (heterogeneous ligand model, population 1) (Interleukin-5): 0.000612 s⁻¹
- kd2 (heterogeneous ligand model, population 2) (Interleukin-5): 0.00712 s⁻¹
- Kd1 (heterogeneous ligand model, population 1) (Interleukin-21): 272 nM
- Kd2 (heterogeneous ligand model, population 2) (Interleukin-21): 285 nM
- kd1 (heterogeneous ligand model, population 1) (Interleukin-21): 0.000928 s⁻¹
- kd2 (heterogeneous ligand model, population 2) (Interleukin-21): 0.0126 s⁻¹
- Kd1 (heterogeneous ligand model, population 1) (Interleukin-22): 482 nM
- Kd2 (heterogeneous ligand model, population 2) (Interleukin-22): 780 nM
- kd1 (heterogeneous ligand model, population 1) (Interleukin-22): 0.00764 s⁻¹
- kd2 (heterogeneous ligand model, population 2) (Interleukin-22): 0.00276 s⁻¹
- Kd1 (heterogeneous ligand model, population 1) (Leptin): 143 nM
- Kd2 (heterogeneous ligand model, population 2) (Leptin): 404 nM
- kd1 (heterogeneous ligand model, population 1) (Leptin): 0.000452 s⁻¹
- kd2 (heterogeneous ligand model, population 2) (Leptin): 0.0307 s⁻¹

B2: Human S100P mutant F89A (natural protein)
chain: B1 chain with F89A
notes: S100P protein, human, recombinant, with F89A; source: E. coli, prepared as previously described [28]
- Kd1 (heterogeneous ligand model, population 1) (Interleukin-15): 157 nM
- Kd2 (heterogeneous ligand model, population 2; column head printed as Kd1) (Interleukin-15): 283 nM
- Kd1 (heterogeneous ligand model, population 1) (Prolactin): 689 nM
- Kd2 (heterogeneous ligand model, population 2; column head printed as Kd1) (Prolactin): 3.12 µM
- Kd (Growth hormone variant): > 100 µM
- Kd1 (heterogeneous ligand model, population 1) (Interleukin-10): 4.74 µM
- Kd2 (heterogeneous ligand model, population 2; column head printed as Kd1) (Interleukin-10): 6.05 µM

B3: Human S100P mutant Δ42–47 (lacks PGFLQS sequence in the 'hinge') (natural protein)
chain: MTELETAMGMIIDVFSRYSGSEGSTQTLTKGELKVLMEKELGKDKDAVDKLLKDLDANGDAQVDFSEFIVFVAAITSACHKYFEKAGLK
notes: S100P protein, human, recombinant, with residues 42-47 (PGFLQS) deleted; source: E. coli, prepared as previously described [28]
- Kd (Interleukin-15): > 100 µM
- Kd (Prolactin): > 100 µM
- Kd (Growth hormone variant): > 100 µM
- Kd (Interleukin-10): > 100 µM
